Data reported in PMC4169312 (The FEBS journal, 2014).

B1: sMAT (methionine adenosyltransferase from Sulfolobus solfataricus) (Saccharolobus solfataricus P2) (protein)
chain: MRNINVQLNPLSDIEKLQVELVERKGLGHPDYIADAVAEEASRKLSLYYLKKYGVILHHNLDKTLVVGGQATPRFKGGDIIQPIYIIVAGRATTEVKTESGIDQIPVGTIIIESVKEWIRNNFRYLDAERHVIVDYKIGKGSSDLVGIFEASKRVPLSNDTSFGVGFAPLTKLEKLVYETERHLNSKQFKAKLPEVGEDIKVMGLRRGNEVDLTIAMATISELIEDVNHYINVKEQVRNQILDLASKIAPGYNVRVYVNTGDKIDKNILYLTVTGTSAEHGDDGMTGRGNRGVGLITPMRPMSLEATAGKNPVNHVGKLYNVLANLIANKIAQEVKDVKFSQVQVLGQIGRPIDDPLIANVDVITYDGKLTDETKNEISGIVDEMLSSFNKLTELILEGKATLF

Key:
Assay in all cases: RP-HPLC product quantification, Michaelis-Menten fit
[1] = biological target: sMAT (methionine adenosyltransferase from Sulfolobus solfataricus) (Saccharolobus solfataricus, UniProt Q980S9); format: biochemical; conditions: 65 °C, pH 8.0, 2.5 mM ATP, 5 mM MgCl2, 40 mM KCl
[2] = substrate: CSCC[C@H](N)C(=O)O; format: biochemical, Saccharolobus solfataricus; conditions: 65 °C, pH 8.0, 2.5 mM ATP, 5 mM MgCl2, 40 mM KCl
[3] = substrate: Nc1ncnc2c1ncn2[C@@H]1O[C@H](COP(=O)(O)OP(=O)(O)OP(=O)(O)O)[C@@H](O)[C@H]1O; format: biochemical, Saccharolobus solfataricus; conditions: 65 °C, pH 8.0, 2.5 mM L-methionine, 5 mM MgCl2, 40 mM KCl

| Molecule | Km [1] [µM] | Km [2] [µM] | kcat [2] [s⁻¹] | kcat/Km [2] [M⁻¹ s⁻¹] | Km [3] [µM] | kcat [3] [s⁻¹] | kcat/Km [3] [M⁻¹ s⁻¹] |
| --- | --- | --- | --- | --- | --- | --- | --- |
| CCSCC[C@H](N)C(=O)O [L-ethionine, (2S)-2-amino-4-(ethylsulfanyl)butanoic acid] | 7 ± 1.6 |  |  |  |  |  |  |
| B1 |  | 2.8 ± 0.7 | 0.0487 ± 0.00117 | 17400 ± 1670 | 14.5 ± 2.5 | 0.0468 ± 0.00133 | 3230 ± 533 |
